Laboratory results from the supplement of paper PMC9170038.

System: MS2 coat protein
Experiment: apparent KD of MS2 coat protein; designed switch direction (-1 OFF switch, 1 ON switch): 1; higher = weaker reporter binding
Outline: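 SNAP-549-labelled MS2 coat protein was titrated, doubling from 0.7 or 1.5 nM to 3 µM, over designed RNA switches transcribed on Illumina chips by stalled E. coli RNA polymerase. Runs were done without input, with 200 uM small-molecule ligand, or with an oligonucleotide input. Apparent KD is the per-design median over clusters of curve-fitted normalised fluorescence.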

[1] = input ligand: microRNA oligo, concentration not stated
[2] = Eterna round: R95, input ligand: FMN 200 uM
[3] = Eterna round: R95, input ligand: microRNA oligo, concentration not stated
[4] = Eterna round: R95, input ligand: none

| Sequence | apparent KD of MS2 coat protein (input ligand: FMN 200 uM) | apparent KD of MS2 coat protein [1] | apparent KD of MS2 coat protein (input ligand: none) | apparent KD of MS2 coat protein [2] | apparent KD of MS2 coat protein [3] | apparent KD of MS2 coat protein [4] |
| --- | --- | --- | --- | --- | --- | --- |
| AGAUGUUAAUUAGGAUAUGGGCACAUGAGGAUCACCCAUGUAACGUAGAUACGAUGUGGUCAAGUCUAGAAGGGAUAGCUAACA [SameState NG2 #77] (Eterna round: R96, puzzle: Same State NG 2) | 0.0725 µM | 0.0593 µM | 0.0706 µM |  |  |  |
| GGUCCAGCCUGAGCUGGACAAAAGCAUGUACAUGAGGAUCACCCAUGUUCAUGUACAAGCUUUUUGCUCGUCUUAAG [salish99_208a_r3_037] (puzzle: Sensor for hsa-mir-208a) |  |  |  | 0.719 µM | 0.018 µM | 0.74 µM |
| GCCAACUUAUGAGGAUAUGGCACCUUAUUGGUGCCAGAAGGCAUGUGAAUUCACAUGAGGAUCACCCAUGUAUUAUAGUUGGCA [Fiskers NG1ss - 20] (Eterna round: R96, puzzle: Same State NG 1) | 0.0323 µM | 0.221 µM | 0.356 µM |  |  |  |
| UAGAGAGGAAGCGAGGAUAUCGUGGGAGGAACAUGAGGAUCACCCAUGUGUGAUGUUGAGAGGAACGAGAAGGCGCAGGAAAGUA [JR_SS2_Sub078] (puzzle: Same State 2) |  |  |  | 0.0833 µM | 0.0831 µM | 0.143 µM |
| CCGGACAUGAGGAUCACCCAUGUCGACGGAUACCCUUGGGCAUAGGAUAUCUGGAAUUAAAAGAAAGAGAAGGGUGAUCCAAGG [Qusoinrege] (Eterna round: R96, puzzle: Same State NG 3) | 0.0236 µM | 0.0408 µM | 0.0404 µM |  |  |  |
| AUAAGUUCGAUGCUCGUCUCUCCGUACAAACAUGAGGAUCACCCAUGUGAUCGGGAAGUAGCCCGGUCAGUAUGGCC [Ordierti] (puzzle: Sensor for hsa-mir-208a) |  |  |  | 0.0351 µM | 0.0244 µM | 0.0385 µM |
| ACAUGAGGAUCACCCAUGUAUUUAUUUGAAUCUUAAGUUACGUAGGAUAUCGUGUAUACUAUCAUCGAGAAGGACGAUGUGAUA [JR_SSNG3_Sub068] (Eterna round: R96, puzzle: Same State NG 3) |  | 0.0125 µM |  |  |  |  |
| UGUUGUAUUACAGGAUAUCUAGUUUUUUUAUUUAGAGAAGGGUAUUCACAUGAGGAUCACCCAUGUAUAUACGAGGAAGUUGUG [JMF's solution 33] (Eterna round: R96, puzzle: Same State NG 1) |  | 0.0364 µM |  |  |  |  |
| CCGUAAUAUGGAGGAUAUGGAGCCUUAUUGGCUCCAGAAGGUCAUAAAACAUGAGGAUCACCCAUGUCGGCGGUCAAUAGACCG [Eli NG1ss - 77] (Eterna round: R96, puzzle: Same State NG 1) |  | 0.0426 µM |  |  |  |  |
| GUUACAUGAGGAUCACCCAUGUAUGUGUGGGAGUAAGUGUCUUAGGAUAUCUAUGAUUUAAUUUUAGAGAAGGAAGAUUGUUGU [JMF's solution 86] (Eterna round: R96, puzzle: Same State NG 3) | 0.112 µM | 0.0709 µM | 0.0908 µM |  |  |  |
| CCUUAACAGUGAGGAUAUCGUUGCGAUAAGUGACGAGAAGGCACUCAUGUGAAAUAAACAUACAUGAGGAUCACCCAUGUUGUG [Omei SS(NG)1 Bv5] (Eterna round: R96, puzzle: Same State NG 1) | 0.0344 µM | 0.04 µM | 0.0442 µM |  |  |  |
| UUGCUCGUGUGAGGAUAUGCAGCCGUUUCGGCUGCAGAAGGUACUAUAAUACAUGAGGAUCACCCAUGUCUCUGUUGUUUAGUG [salish99_SSNG1_r04_928] (Eterna round: R96, puzzle: Same State NG 1) | 0.034 µM | 0.0278 µM | 0.0392 µM |  |  |  |
| AAACAUGAGCGAGGAUAUACAUGAGGAUCACCCGUAGAAGGCGCAUGUAAAACAACAUGAGGAUCACCCAUGUCAUGUACAUGA [Same State NG1 S1] (Eterna round: R96, puzzle: Same State NG 1) | 0.0615 µM | 0.055 µM | 0.0669 µM |  |  |  |
| CAGCUCGUGUGAGGAUAUGCCGCCGUUUCGGCUGCAGAAGGUGCUACGUUACAUGAGGAUCACCCAUGUCUCUGUUGUUUCGUU [salish99_SSNG1_r04_950] (Eterna round: R96, puzzle: Same State NG 1) |  | 0.0182 µM |  |  |  |  |
| GAGUGGAAGUAAGGAUAUAUAAUGAUAAUCACAGUAGAAGGUACUAACAUGAGGAUCACCCAUGUAGGACUAUACCAGAGAGGG [Parity 44 - Jieux - Same State NG 1] (Eterna round: R96, puzzle: Same State NG 1) |  | 0.0123 µM |  |  |  |  |
| AGUCCAGCCUAAGCUGGACAAAAGCAUGUACAUGAGGAUCACCCAUGUUCAUGUACAAGCUUUUUGCUCGUCUUAAA [Mat - hsa-mir-208a - Mod of JL - 54] (puzzle: Sensor for hsa-mir-208a) |  |  |  | 0.544 µM | 0.0151 µM | 0.447 µM |

| Sequence | apparent KD of MS2 coat protein (input ligand: FMN 200 uM) | apparent KD of MS2 coat protein [1] | apparent KD of MS2 coat protein (input ligand: none) | apparent KD of MS2 coat protein [2] | apparent KD of MS2 coat protein [3] | apparent KD of MS2 coat protein [4] |
| --- | --- | --- | --- | --- | --- | --- |
| AAAGGAUGAUUAUACAUGAGGAUCACCCAUGUAAGUAAUACUAAGGAUAUGUGACUUAAUUGUUUACAGAAGGUAGGUUCAUGA [AK SSNG3-V2-1.1] (Eterna round: R96, puzzle: Same State NG 3) | 0.0588 µM | 0.23 µM | 0.117 µM |  |  |  |
| GUAGCAUGCAGCGAGGAUAUUCAUAUUAAAACAUGAGGAUCACCCAUGUAGGCCAAAAGGCCUUGGGAGAAGGCGCACAUGCUAC [Xeonanis - 20] (Eterna round: R96, puzzle: Same State 2) | 0.0378 µM | 0.36 µM | 0.536 µM |  |  |  |
| UGUACAUGAGGAUCACCCAUGUCUAGACAUGUUAAUAUAAUGUAGGAUAUAUAAAAUUUAAAUUAAUAGAAGGACAAUUUUUUU [JMF's solution 2] (Eterna round: R96, puzzle: Same State NG 3) | 0.113 µM | 0.155 µM | 0.212 µM |  |  |  |
| UUUAGUUGCGGGCAGGAUAUGUAUUAAAAUACAUGAGGAUCACCCAUGUGCGGGUAUAACACCCGGCAGAAGGGCCAAUCGCGAC [Laonerce - 3] (puzzle: Same State 2) |  |  |  | 0.0342 µM | 0.191 µM | 0.296 µM |
| GCUCGAUGUGCUGUUUACAUGAGGAUCACCCAUGUAGAUGCGGAGGAUAUCUACGUGCUUUAUGUAGAGAAGGUCGUAUCGAGC [SameState NG3 #83] (Eterna round: R96, puzzle: Same State NG 3) | 0.0334 µM | 0.0412 µM | 0.0608 µM |  |  |  |
| AGAUGUUAAUUAGGAUAUGGACACAUGAGGAUCACCCAUGUAACGAAGAUACGAUGUGGUCAAGUCUAGAAGGGAUCGCUAACA [SameState NG2 #74] (Eterna round: R96, puzzle: Same State NG 2) | 0.0381 µM | 0.0269 µM | 0.0366 µM |  |  |  |
| GGAAACUUGAGAGGAUAUGUAGAGGAUCACCCUACAGAAGGCUCAAAAGAGAGGAUAUGUAGAGGAUCACCCUACAGAAGGCUC [pwkr ssNG DX.11] (Eterna round: R96, puzzle: Same State NG 1) | 0.0249 µM | 0.0237 µM | 0.0331 µM |  |  |  |
| AUUAUUUCAUGAGGAUAUGGCACCUUAUUGGUGCCAGAAGGCAUGUCAUUAGACAUGAGGAUCACCCAUGUAUUAUAUUAUAUA [Fiskers NG1ss - 13] (Eterna round: R96, puzzle: Same State NG 1) | 0.0415 µM | 0.392 µM | 0.534 µM |  |  |  |
| AUUAAACAUGAGGAUCACCCAUGUCAACAAAGUCGAGGAUAUGGGCAAAUAAAAUAAGUACCAGAAGGCGAAUAAU [salish99_ss1_r3_066] (Eterna round: R96, puzzle: Same State 1) | 0.0214 µM | 0.0661 µM | 0.103 µM |  |  |  |
| AGUAGUGUAACAUGAGGAUCACCCAUGUAAGAAUAUGUAACCUAGGAUAUGGAGGUUAUGUUUGACCAGAAGGAGGAUUGUUUA [JR_SSNG3_Sub041] (Eterna round: R96, puzzle: Same State NG 3) | 0.027 µM | 0.0203 µM | 0.0259 µM |  |  |  |
| UACUGAGUCGUAGGAUAUGUAGGAUAUGGCGAGAGCUAAGCUUGGAAGUCACUUCAGCCAGAAGGACAGAAGGACGACUCUCUC [pwkr ssNG2 2FMN + F9.13] (Eterna round: R96, puzzle: Same State NG 2) | 0.04 µM | 0.273 µM | 0.0511 µM |  |  |  |
| GGUAGGUUACUACCAGACAUGAGGAUCACCCAUGUAAGUGGGAAGGAUAUGGUACCUUUUAGGUACCAGAAGGUCCAUAUAGUU [JL SSNG3 1.43] (Eterna round: R96, puzzle: Same State NG 3) | 0.253 µM | 0.429 µM | 1.08 µM |  |  |  |
| UAUUAAGCUGUAGGAUAUCUAGGAUAUGGACGAGGAUCACCCGAGCAGCAUCAGCGCACCAGAGGAGAGAAGGACGCUUUGGUG [pwkr ssNG2 2F5 2FMN.23] (Eterna round: R96, puzzle: Same State NG 2) | 0.961 µM | 0.348 µM | 2.73 µM |  |  |  |
| AUAUGAGGAGCAGGAUAUGCGGAGAAGAAAGAAGCAGAAGGGCUCAUGGGACGACAUGAGGAUCACCCAUGUGCUCCGCGAUGA [AK SSNG1-V2-4] (Eterna round: R96, puzzle: Same State NG 1) | 0.0699 µM | 0.0295 µM | 0.328 µM |  |  |  |
| UAGGAUCAACGAGGAUAUAAUAGGUUCAAUUUUUUAUAUUGUUUACAUGAGGAUCACCCAUGUUAUUAGAAGGCGUAUGGGAUU [JR_SSNG2_Sub084] (Eterna round: R96, puzzle: Same State NG 2) |  | 0.0399 µM |  |  |  |  |
